Literature values, collected in article PMC12368481, “Discovery of a Phenylalanine‐Derived Natural Compound as a Potential Dual Inhibitor of MDM2 and MDMX” (Chemmedchem, 2025).
Read-outs that look alike come from different tables or passages of the source.

Tests used:
[1] = molecular target: p53 peptide (Homo sapiens) (UniProt P04637)
[2] = molecular target: p53 peptide (Homo sapiens) (UniProt P04637); remark: listed apart in the source

Chain of p53 peptide (Homo sapiens) (P04637 whole entry): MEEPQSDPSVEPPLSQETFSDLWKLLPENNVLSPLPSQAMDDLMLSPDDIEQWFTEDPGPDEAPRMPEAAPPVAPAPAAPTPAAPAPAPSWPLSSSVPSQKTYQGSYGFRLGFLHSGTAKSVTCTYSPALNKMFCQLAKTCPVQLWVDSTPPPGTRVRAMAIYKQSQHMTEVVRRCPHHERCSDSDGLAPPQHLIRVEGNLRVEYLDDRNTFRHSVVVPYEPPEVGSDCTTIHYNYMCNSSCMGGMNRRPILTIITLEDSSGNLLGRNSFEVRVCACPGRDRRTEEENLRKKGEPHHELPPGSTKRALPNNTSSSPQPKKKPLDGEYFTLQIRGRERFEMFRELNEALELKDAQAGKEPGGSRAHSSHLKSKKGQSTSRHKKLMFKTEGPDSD
Chain of MDM2 (Q00987 whole entry): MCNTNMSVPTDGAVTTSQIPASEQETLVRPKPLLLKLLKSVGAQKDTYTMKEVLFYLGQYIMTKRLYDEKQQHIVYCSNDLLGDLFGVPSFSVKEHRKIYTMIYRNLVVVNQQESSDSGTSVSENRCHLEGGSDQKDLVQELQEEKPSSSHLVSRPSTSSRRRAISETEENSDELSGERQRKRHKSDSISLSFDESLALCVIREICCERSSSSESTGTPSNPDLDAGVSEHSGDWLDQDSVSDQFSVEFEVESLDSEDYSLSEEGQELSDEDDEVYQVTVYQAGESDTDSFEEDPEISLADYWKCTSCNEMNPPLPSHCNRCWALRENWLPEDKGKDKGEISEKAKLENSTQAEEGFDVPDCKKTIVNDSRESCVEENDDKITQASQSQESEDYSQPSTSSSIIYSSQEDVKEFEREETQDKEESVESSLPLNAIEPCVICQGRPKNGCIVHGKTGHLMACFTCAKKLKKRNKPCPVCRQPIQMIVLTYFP
Chain of MDMX (O15151 whole entry): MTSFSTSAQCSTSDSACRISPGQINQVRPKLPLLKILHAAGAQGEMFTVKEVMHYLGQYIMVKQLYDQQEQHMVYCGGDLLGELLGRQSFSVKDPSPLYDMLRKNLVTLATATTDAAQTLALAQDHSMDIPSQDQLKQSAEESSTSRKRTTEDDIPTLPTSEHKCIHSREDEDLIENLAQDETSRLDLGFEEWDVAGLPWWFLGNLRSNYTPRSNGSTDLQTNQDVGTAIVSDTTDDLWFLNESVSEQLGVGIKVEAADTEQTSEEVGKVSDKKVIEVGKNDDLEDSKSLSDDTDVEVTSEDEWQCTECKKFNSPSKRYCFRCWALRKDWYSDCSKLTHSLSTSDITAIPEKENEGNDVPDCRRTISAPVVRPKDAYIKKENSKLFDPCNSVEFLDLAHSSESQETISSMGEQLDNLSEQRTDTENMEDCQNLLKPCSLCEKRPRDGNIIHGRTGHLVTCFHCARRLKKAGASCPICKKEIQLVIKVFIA

Kd [1] | Kd [2] | Substance
1110 nM |  | MDM2 (from UniProt Q00987)
 | 340 nM | MDMX (from UniProt O15151)
